The record followed here is patent US20170015742A1 (published 2017).

Values joined by “and” are separate entries in the source; they are usually repeats but may differ in a detail not shown here. Equal entries are not always repeated.

Experiment [1] has as its target T1, mouse PDGF-B (PR-1577160) (mouse, UniProt P31240 82-190).
T1 construct: Recombinant; also called mouse PDGF-BB; mPDGF-BB
Kind of experiment: SPR (Biacore), mAb captured by anti-human Fc, antigen injected. As to the method:
(§1) Unreacted moieties on the biosensor surface were blocked with ethanolamine. For kinetic analysis, rate equations derived from the 1:1 Langmuir binding model were fitted simultaneously to multiple antigen injections (using global fit analysis) with the use of Scrubber 2 (BioLogic Software), Biacore Biaevaluation 4.0.1 software or Biacore T100 Evaluation software. Purified antibodies or DVD-Ig molecules were diluted in running buffer for capture across goat anti-human Fc reaction surfaces. Antibodies or DVD-Ig molecules to be captured as a ligand (1 μg/ml) were injected over reaction matrices at a flow rate of 10 μl/minute. During the assay, all measurements were referenced against the capture surface alone (i.e., with no captured antibody or DVD-Ig molecule). […] The equilibrium dissociation constant KD (M) of the reaction between antibodies and the target antigen was then calculated from the kinetic rate constants by the following formula: KD=Koff/Kₒₙ. Binding was recorded as a function of time and kinetic rate constants were calculated. In this assay, on-rates as fast as 10⁶M⁻¹s⁻¹ and off-rates as slow as 10⁻⁶ s⁻¹ could be measured.

For experiment [2], the target named is T2, human PDGF-B (PR-1373790) (human, UniProt P01127 82-190).
T2 construct: Soluble recombinant PDGF-BB homodimer; also called human PDGF-BB; hPDGF-BB
The description is as above. As to the method:
as §1

A further experiment deals with T3, cyno PDGF-B (PR-1575400) (cynomolgus monkey, UniProt P01127 82-190 (human entry), limits assumed).
T3 construct: Recombinant; also called cynomolgus monkey PDGF-BB; cynoPDGF-BB
T3 chain: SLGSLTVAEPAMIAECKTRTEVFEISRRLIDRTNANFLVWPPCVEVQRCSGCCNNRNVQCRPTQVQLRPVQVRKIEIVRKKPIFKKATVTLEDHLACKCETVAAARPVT
The description is as above. The method, then: as §1

For experiment [3], the target named is T4, Human VEGF-A 165 (human, UniProt P15692 207-395). Briefly: cell-based or functional assay.
The target in the next experiment is T5, human VEGF111 (human, UniProt P15692-10 27-137).
T5 sequence (looked up): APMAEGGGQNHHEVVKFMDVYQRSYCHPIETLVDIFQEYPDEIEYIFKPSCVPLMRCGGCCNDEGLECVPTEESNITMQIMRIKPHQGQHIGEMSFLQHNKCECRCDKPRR
Briefly: cell-based or functional assay.

In experiment [4] the target is T4, Human VEGF-A 165. Briefly: SPR (Biacore), antibody captured by anti-human Fc, hVEGF165 as analyte. As to the method: as §1, with “For example, approximately 9000 RU of goat anti-human Fc specific polyclonal antibody (Thermo Fisher Scientific Inc., Rockford, Ill.) diluted in 10 mM sodium acetate (pH 4.5) is directly immobilized across a CM5 research grade biosensor chip using a standard amine coupling kit according to manufacturer's instructions and procedures at 25 μg/ml. Unreacted” for “Unreacted”, “calculated.” for “calculated. In this assay, on-rates as fast as 10⁶M⁻¹s⁻¹ and off-rates as slow as 10⁻⁶ s⁻¹ could be measured.”

In experiment [5] the target is T4, Human VEGF-A 165. Briefly: receptor competition ELISA: antibody titrated against biotinylated hVEGF165, binding to coated hVEGF-R2-Fc read. The method, then: To identify molecules that could block the binding of hVEGF₁₆₅ to the hVEGF-R2 (KDR/Flk-1) receptor, a competition ELISA was performed. […] Plates were then washed four times with wash buffer (TBS, 0.05% Tween-20) and blocked with Superblock blocking buffer (Thermo Scientific, cat#37535). […] The pre-incubated sample/hVEGF₁₆₅ complex was added to the coated plate at 50 μL in duplicate and incubated for 30 minutes at 25° C. with shaking. Following incubation, plates were washed four times with wash buffer. Streptavidin-polyHRP-40 (Fitzgerald cal#65r-s104phrp) was diluted in assay diluent (10% Superblock containing 0.05% surfactamps) and added to plates (50 μL) for 45 minutes at 25° C. with shaking. Plates were washed four times with wash buffer and developed with the addition of Enhanced K-blue TMB substrate (Neogen cat#308177). The reaction was stopped with 2N sulfuric acid (VWR, cat# BDH3500-1) and the absorbance was read at 450 nm-570 nm. A decrease in observed optical density indicates the test molecule is blocking the hVEGF₁₆₅ binding to the hVEGF-R2-Fc. Data was analyzed using Softmax Pro 4.8 software and IC₅₀ values calculated using a sigmoidal dose response (variable slope) fit in GraphPad Prism 5.
Background: An ELISA detects its analyte on a solid surface through an enzyme-linked reagent.

For experiment [6], the target named is T6, human VEGF 165 (PR-1350437) (human, UniProt P15692 207-395).
T6 construct: Purified recombinant protein; also called hVEGF165
Briefly: SPR (Biacore), mAb captured by anti-human Fc, antigen injected. The method, then: as §1
Background: In SPR one partner is held on a chip, and binding of the other changes the refractive index at the surface.

Experiment [7] has as its target T7, human VEGF 121 (PR-1515941) (human, UniProt P15692 207-395).
T7 construct: Recombinant isoform; also called hVEGF121
T7 sequence: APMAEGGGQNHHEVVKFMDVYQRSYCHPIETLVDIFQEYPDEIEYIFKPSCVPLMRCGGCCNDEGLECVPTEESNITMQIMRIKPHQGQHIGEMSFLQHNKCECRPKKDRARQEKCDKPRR
The experiment is described as above. As to the method: as §1

Experiment [8] deals with T8, human VEGF 111 (PR-1520687) (human, UniProt P15692-10 27-137).
T8 construct: also called hVEGF111
T8 sequence (looked up): T5 sequence (looked up)
Described as above. The method, then:
as §1

Experiment [9] deals with T9, recombinant human PDGF-BB (human, UniProt P01127 82-190, biotin-labelled in the binding and competition ELISAs (sites not given)).
T9 construct: Bought protein (CST cat#8912BF) in the ELISAs and cell assays; purified recombinant PDGF-BB in Biacore; also called huPDGF-BB; hPDGF-BB
Kind of experiment: Biacore SPR, antibody captured, PDGF-BB injected. The method, then: as §1, with “For example, approximately 9000 RU of goat anti-human Fc specific polyclonal antibody (Thermo Fisher Scientific Inc., Rockford, Ill.) diluted in 10 mM sodium acetate (pH 4.5) is directly immobilized across a CM5 research grade biosensor chip using a standard amine coupling kit according to manufacturer's instructions and procedures at 25 μg/ml. Unreacted” for “Unreacted”, “calculated.” for “calculated. In this assay, on-rates as fast as 10⁶M⁻¹s⁻¹ and off-rates as slow as 10⁻⁶ s⁻¹ could be measured.”

T1 sequence (P31240 82-190 limits assumed): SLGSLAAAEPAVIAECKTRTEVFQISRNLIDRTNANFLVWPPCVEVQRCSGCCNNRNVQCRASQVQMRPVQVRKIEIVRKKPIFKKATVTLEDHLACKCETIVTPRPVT

B1: CL-33675, PR-1593725 (antibody, V domains shown)
VH: EVTLRESGPALVKPTQTLTLTCTFSGFSLSTYGMGVGWIRQPPGKALEWLANIWWDDDKYYNPSLKNRLTISKDTSKNQVVLTMTNMDPVDTATYYCARIESSGPKYSFDYWGQGTMVTVSS
VL: EIVLTQSPGTLSLSPGERATLSCRASSGSIWYSFVSWYQQKPGQAPRLLIYADDQRASGIPDRFSGSGSGTDFTLTISRLEPEDFAVYYCQSYGINIDVVFGGGTKVEIK
notes: also called CL-33675-IgG
What is called Kd is a measure of binding affinity in units of concentration. As usually defined, the koff is the first-order rate constant of dissociation. One may read the kon as the second-order rate constant of association. On to B1, for which, in experiment [1], the Kd is no more than 0.58 pM, the koff was 5.8e-06 s⁻¹ and the on-rate (kon) was no less than 1e+07 M⁻¹ s⁻¹. In [2], this molecule returned a dissociation constant Kd of no more than 0.58 pM, a koff of 5.8e-06 s⁻¹ and an association rate constant (kon) of no less than 1e+07 M⁻¹ s⁻¹. In the experiment with cyno PDGF-B (PR-1575400), this molecule had a Kd of no more than 1.3 pM, an off-rate (koff) of 1.3e-05 s⁻¹ and an association rate constant (kon) of no less than 1e+07 M⁻¹ s⁻¹.

B2: chBEW-6C2 (antibody, human IgG1, kappa, L234A L235A, V domains shown)
VH: EVQLVESGGGLVQPGSSLKLSCAASGFTFSYYGMHWIRQAPKKGLEWMALIYYDSSKMYYADSVKGRFTISRDNSKNTLYLEMNSLRSEDTAMYYCAAGGTAPVYWGQGVMVTVSS
VL: NIQLTQSPSLLSASVGDRVTLSCKGSQNIANYLAWYQQKLGEAPKLLIYNTDSLQTGIPSRFSGSGSGTDYTLTISSLQPEDVATYFCYQSNNGYTFGAGTKLELRR
In general, IC50 refers to the concentration at which inhibition is half-maximal. A higher IC50 goes with a need for much substance. For B2, the “huVEGF-A165 Neutralization Potency in HMVEC-d cells” value (shortened to “huVEGF-A165 Neutralization Potency”) in the experiment with Human VEGF-A 165 [3] amounted to 31 pM. In addition, the “Phospho-Tyr1054/huVEGF-A111 Neuterlization” value with human VEGF111 worked out at 0.435 nM. In the experiment with Human VEGF-A 165 [4], this molecule yielded a Kd of 8.8 pM and a kon of 4.9e+06 M⁻¹ s⁻¹. The concentration for half-maximal inhibition (IC50) with Human VEGF-A 165 [5] is 148 pM.

B3: chBDB-4G8 (antibody, human IgG1, kappa, L234A L235A)
heavy: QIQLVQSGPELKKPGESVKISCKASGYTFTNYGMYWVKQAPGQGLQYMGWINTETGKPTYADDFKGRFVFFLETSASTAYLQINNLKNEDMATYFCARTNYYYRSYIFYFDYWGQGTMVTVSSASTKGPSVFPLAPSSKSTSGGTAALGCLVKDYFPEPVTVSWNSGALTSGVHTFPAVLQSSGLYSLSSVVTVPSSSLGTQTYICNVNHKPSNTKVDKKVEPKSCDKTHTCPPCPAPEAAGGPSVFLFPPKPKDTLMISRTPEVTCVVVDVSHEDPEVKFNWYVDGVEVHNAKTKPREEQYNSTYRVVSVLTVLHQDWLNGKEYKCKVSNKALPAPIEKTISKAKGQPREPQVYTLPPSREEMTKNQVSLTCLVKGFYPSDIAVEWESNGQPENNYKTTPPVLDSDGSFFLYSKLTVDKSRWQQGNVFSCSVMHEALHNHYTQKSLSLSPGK
light: DTVLTQSPALAVSPGERVSISCRASESVSTHMHWYQQKPGQQPKLLIYGASNLESGVPARFSGSGSGTDFTLTIDPVEADDTATYFCQQSWNDPFTFGAVTKLELKRTVAAPSVFIFPPSDEQLKSGTASVVCLLNNFYPREAKVQWKVDNALQSGNSQESVTEQDSKDSTYSLSSTLTLSKADYEKHKVYACEVTHQGLSSPVTKSFNRGEC
As for B3, the “huVEGF-A165 Neutralization Potency” value in the experiment with Human VEGF-A 165 [3] is 195 pM. Moreover, the “Phospho-Tyr1054/huVEGF-A111 Neuterlization” value in the experiment with human VEGF111 was found to be 0.575 nM. In the experiment with Human VEGF-A 165 [4], the Kd was 1.9 pM and 3.8 pM; the kon is 1.7e+07 M⁻¹ s⁻¹ and 1.2e+07 M⁻¹ s⁻¹. Also, in the experiment with Human VEGF-A 165 [5], the IC50 was 157 pM.

B4: chBEW-9A8 (antibody, human IgG1, kappa, L234A L235A, V domains shown)
VH: QIQLVQSGPELKKPGESVKISCKASGYTFTNYGMYWVKQAPGQGLQYMGWINTETGKPIYADDFKGRFVFFLETSASTAYLQINNLKNEDMATFFCARVDYDGSFWFAYWGQGTLVTVSS
VL: DTVLTQSPALAVSPGERVSISCRASESVSTVIHWYQQKPGQQPKLLIHGASNLESGVPARFSGSGSGTDFTLTIDPVEADDTATYFCQQHWNDPPTFGAGTKLEMKR
On to B4, for which the “huVEGF-A165 Neutralization Potency” value with Human VEGF-A 165 [3] is 26 pM. The “Phospho-Tyr1054/huVEGF-A111 Neuterlization” value with human VEGF111 turned out to be 0.26 nM. Also, in the experiment with Human VEGF-A 165 [4], the dissociation constant (Kd) was no more than 0.11 pM and the on-rate (kon) was determined as 8.9e+06 M⁻¹ s⁻¹. The same molecule returned a 50% inhibitory concentration (IC50) with Human VEGF-A 165 [5] of 97 pM.

B5: AB642 (9E10.1), PR-1594047 (antibody, V domains shown)
VH: EIQLVQSGSELKKPGASVKVSCKASGYTFTNYGMYWVKQAPGQGLEYMGWIDTETGRPTYADDFKGRFVFSLDTSVSTAYLQISSLKAEDTAVYFCARWSGDTTGIRGPWFAYWGQGTLVTVSS
VL: DIRMTQSPSSLSASVGDRVTIECLASEDIYSDLAWYQQKPGKSPKLLIYNANGLQNGVPSRFSGSGSGTDYSLTISSLQPEDVATYFCQQYNYFPGTFGQGTKLEIK
notes: Parental anti-VEGF mAb of PR-1610561; Humanized IgG; also called hBEW-9E10.1
Consider B5, for which, in [6], the dissociation constant (Kd) was found to be 1.8 pM, the dissociation rate constant (koff) amounted to 2.8e-05 s⁻¹ and the kon was determined as 1.6e+07 M⁻¹ s⁻¹. In experiment [7], this molecule had an equilibrium dissociation constant (Kd) of 21 pM, a koff of 6.8e-05 s⁻¹ and a kon of 3.2e+06 M⁻¹ s⁻¹. In experiment [8], this molecule had a Kd of 58 pM, a koff of 0.0001 s⁻¹ and a kon of 1.8e+06 M⁻¹ s⁻¹.

B6: BFU-11A8-D6-C3 (antibody, V domains shown)
VH: EVQLQQSGPELQRPGASVKLSCKASGYTFTESYIYWVKQRPEQSLELIGRIDPEDGSTDYVEKFKNKATLTADTSSNTAYMQLSSLTSEDTATYFCARFGARSYFYPMDAWGQGTSVTVSS
VL: DTVLTQSPTLAVSPGERVSIPCRASESVSTLMHWYQQKPGQQPRLLIYGASNLESGVPARFSGSGSGTDFTLTIDPVEADDTATYFCQQSWNDPWTFGGGTKLELK
Turning to B6, in experiment [9], the dissociation constant Kd is no more than 0.047 pM, the off-rate constant (koff) is no more than 1e-06 s⁻¹ and the kon is 2.1e+07 M⁻¹ s⁻¹.
